Results: US20260176336A1 (MESTAG THERAPEUTICS, published 2026)

B1: Clone 4.3 (bispecific antibody, human IgG1, kappa, L234A L235A)
heavy 1: not shown
heavy 2: QVQLVQSGAEVKKPGASVKVSCKASGYTFTGYYMHWVRQAPGQGLEWMGWIYPNTGGVNYAQNFQGRVTMTRDTSISTAYMELSRLRSDDTAVYYCARDDYNKNLDYWGQGTLVTVSSASTKGPSVFPLAPSSKSTSGGTAALGCLVKDYFPEPVTVSWNSGALTSGVHTFPAVLQSSGLYSLSSVVTVPSSSLGTQTYICNVNHKPSNTKVDKKVEPKSCDKTHTCPPCPAPEAAGGPSVFLFPPKPKDTLMISRTPEVTCVVVDVSHEDPEVKFNWYVDGVEVHNAKTKPREEQYNSTYRVVSVLTVLHQDWLNGKEYKCKVSNKALPAPIEKTISKAKGQPREPQVCTLPPSRDELTKNQVSLSCAVKGFYPSDIAVEWESNGQPENNYKTTPPVLDSDGSFFLVSKLTVDKSRWQQGNVFSCSVMHEALHNHYTQKSLSLSPG
light: not shown
notes: FAP:LTBR 1:1 heterodimer of LTBR VHH (clone 1.6) paired with FAP Fab (clone 3.6), human IgG1 LALA
B2: Clone 4.6 (bispecific antibody, human IgG1, kappa, L234A L235A)
heavy 1: not shown
heavy 2: QVQLVQSGAEVKKPGASVKVSCKASGYTFTGYYMHWVRQAPGQGLEWMGWIYPNTGGVNYAQNFQGRVTMTRDTSISTAYMELSRLRSDDTAVYYCARDDYNKNLDYWGQGTLVTVSSASTKGPSVFPLAPSSKSTSGGTAALGCLVKDYFPEPVTVSWNSGALTSGVHTFPAVLQSSGLYSLSSVVTVPSSSLGTQTYICNVNHKPSNTKVDKKVEPKSCDKTHTCPPCPAPEAAGGPSVFLFPPKPKDTLMISRTPEVTCVVVDVSHEDPEVKFNWYVDGVEVHNAKTKPREEQYNSTYRVVSVLTVLHQDWLNGKEYKCKVSNKALPAPIEKTISKAKGQPREPQVCTLPPSRDELTKNQVSLSCAVKGFYPSDIAVEWESNGQPENNYKTTPPVLDSDGSFFLVSKLTVDKSRWQQGNVFSCSVMHEALHNHYTQKSLSLSPG
light: not shown
notes: FAP:LTBR 2:1 heterodimer of FAP mAb (clone 3.6) with C terminal fused LTBR VHH (clone 1.7), human IgG1 LALA
B3: Clone 4.4 (bispecific antibody, human IgG1, kappa, L234A L235A)
heavy 1: not shown
heavy 2: QVQLVQSGAEVKKPGASVKVSCKASGYTFTGYYMHWVRQAPGQGLEWMGWIYPNTGGVNYAQNFQGRVTMTRDTSISTAYMELSRLRSDDTAVYYCARDDYNKNLDYWGQGTLVTVSSASTKGPSVFPLAPSSKSTSGGTAALGCLVKDYFPEPVTVSWNSGALTSGVHTFPAVLQSSGLYSLSSVVTVPSSSLGTQTYICNVNHKPSNTKVDKKVEPKSCDKTHTCPPCPAPEAAGGPSVFLFPPKPKDTLMISRTPEVTCVVVDVSHEDPEVKFNWYVDGVEVHNAKTKPREEQYNSTYRVVSVLTVLHQDWLNGKEYKCKVSNKALPAPIEKTISKAKGQPREPQVCTLPPSRDELTKNQVSLSCAVKGFYPSDIAVEWESNGQPENNYKTTPPVLDSDGSFFLVSKLTVDKSRWQQGNVFSCSVMHEALHNHYTQKSLSLSPG
light: not shown
notes: FAP:LTBR 2:1 heterodimer of FAP mAb (clone 3.6) with C terminal fused LTBR VHH (clone 1.6), human IgG1 LALA
B4: Clone 4.2 (bispecific antibody, human IgG1, kappa, L234A L235A)
heavy 1: not shown
heavy 2: QLQLQESGPGLVKPSETLSLTCTVSGGSISSSTYYWGWIRQPPGKGLEWIGSIFYSGNTYYNPSLKSRVTISVDTSKNHFSLKLSSVTAADTAVYYCAREIIEPRPGYFDYWGQGTLVTVSSASTKGPSVFPLAPSSKSTSGGTAALGCLVKDYFPEPVTVSWNSGALTSGVHTFPAVLQSSGLYSLSSVVTVPSSSLGTQTYICNVNHKPSNTKVDKKVEPKSCDKTHTCPPCPAPEAAGGPSVFLFPPKPKDTLMISRTPEVTCVVVDVSHEDPEVKFNWYVDGVEVHNAKTKPREEQYNSTYRVVSVLTVLHQDWLNGKEYKCKVSNKALPAPIEKTISKAKGQPREPQVCTLPPSRDELTKNQVSLSCAVKGFYPSDIAVEWESNGQPENNYKTTPPVLDSDGSFFLVSKLTVDKSRWQQGNVFSCSVMHEALHNHYTQKSLSLSPG
light: not shown
notes: FAP:LTBR 1:1 heterodimer of LTBR VHH (clone 1.7) paired with FAP Fab (clone 3.5), human IgG1 LALA
B5: Clone 4.5 (bispecific antibody, human IgG1, kappa, L234A L235A)
heavy 1: not shown
heavy 2: QLQLQESGPGLVKPSETLSLTCTVSGGSISSSTYYWGWIRQPPGKGLEWIGSIFYSGNTYYNPSLKSRVTISVDTSKNHFSLKLSSVTAADTAVYYCAREIIEPRPGYFDYWGQGTLVTVSSASTKGPSVFPLAPSSKSTSGGTAALGCLVKDYFPEPVTVSWNSGALTSGVHTFPAVLQSSGLYSLSSVVTVPSSSLGTQTYICNVNHKPSNTKVDKKVEPKSCDKTHTCPPCPAPEAAGGPSVFLFPPKPKDTLMISRTPEVTCVVVDVSHEDPEVKFNWYVDGVEVHNAKTKPREEQYNSTYRVVSVLTVLHQDWLNGKEYKCKVSNKALPAPIEKTISKAKGQPREPQVCTLPPSRDELTKNQVSLSCAVKGFYPSDIAVEWESNGQPENNYKTTPPVLDSDGSFFLVSKLTVDKSRWQQGNVFSCSVMHEALHNHYTQKSLSLSPG
light: not shown
notes: FAP:LTBR 2:1 heterodimer of FAP mAb (clone 3.5) with C terminal fused LTBR VHH (clone 1.6), human IgG1 LALA

Tests used:
[1] = molecular target: T1, human LTBR endogenously expressed on cells (HepG2, A549, A375, HCC1187, RPMI-7951, primary human breast CAFs) (human, UniProt P36941 31-435); experiment: cell-based or functional assay
T1 sequence (P36941 31-435): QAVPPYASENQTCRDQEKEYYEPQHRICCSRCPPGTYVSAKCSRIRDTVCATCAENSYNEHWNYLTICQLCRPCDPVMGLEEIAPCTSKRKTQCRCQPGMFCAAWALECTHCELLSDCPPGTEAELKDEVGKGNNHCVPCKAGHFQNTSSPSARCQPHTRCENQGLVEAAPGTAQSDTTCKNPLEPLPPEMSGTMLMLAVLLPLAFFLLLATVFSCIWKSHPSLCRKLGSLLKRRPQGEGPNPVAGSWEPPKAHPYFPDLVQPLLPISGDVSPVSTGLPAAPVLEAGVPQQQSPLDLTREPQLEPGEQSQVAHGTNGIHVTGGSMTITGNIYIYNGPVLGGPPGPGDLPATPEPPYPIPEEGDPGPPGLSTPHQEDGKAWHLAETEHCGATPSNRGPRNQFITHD

[2] = molecular target: T1, human LTBR endogenously expressed on …; experiment: cell-based or functional assay; remark: listed apart in the source
[3] = molecular target: T1, human LTBR endogenously expressed on …; experiment: cell-based or functional assay; remark: listed apart in the source
[4] = molecular target: cynomologus recombinant LTBR (Octet, Example 4.8) (cynomolgus (Macaca fascicularis), UniProt P36941 31-227 (human entry), limits assumed); experiment: BLI (Octet), cyno LTBR immobilised on ARG sensor, antibody at 25 nM
Chain of cynomologus recombinant LTBR (Octet, Example 4.8) (P36941 other isoform, or with tags, fused parts or gaps limits assumed): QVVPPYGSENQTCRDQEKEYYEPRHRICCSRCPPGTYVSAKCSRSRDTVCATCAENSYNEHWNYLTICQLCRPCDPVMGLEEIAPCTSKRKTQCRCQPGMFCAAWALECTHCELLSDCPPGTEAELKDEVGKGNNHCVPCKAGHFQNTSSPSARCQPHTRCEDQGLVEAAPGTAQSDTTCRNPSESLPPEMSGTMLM
Method: A 2-fold series dilution starting at 50 nM of cynomologus recombinant LTBR was immobilised on the surface of ARG biosensors (Fortebio), followed by FAP/LTBR bispecific at 25 nM. Binding kinetics were studied in a 1× Kinetics buffer where the association was allowed for 180 seconds, followed by dissociation for 100 seconds. Sensor tips were regenerated using ethylene glycol. Data generated were referenced by subtracting a parallel buffer blank, the baseline was aligned with the y-axis, inter-step correlation by alignment against dissociation was performed, and the data were smoothed by a Savitzky-Golay filter in the data analysis software. The processed data were fitted using a 1:1 Langmuir binding model with R\hat{ }2 as a measurement of fitting accuracy. The KD values can be found in.

[5] = molecular target: T2, human FAP expressed on cells (transfected HEK293; FAP-CHO-K1 recombinant cell line, BPS cat no. 79947) (human, UniProt Q12884 1-760); experiment: flow cytometry, FAP-CHO-K1 cells
T2 construct: also called HuFAP-HEK293; Hek-FAP
Method: (§1) In short, 1×10⁶ cells were resuspended in the FACS buffer (1% BSA, 0.1% Sodium Azide in PBS), and 50 μl was added to each well (5×10⁴ cells/well) of a 96-U bottom plate. The cells were washed once and resuspended in 50 μl/well of FACS buffer containing a 1:3, 11-point series dilutions of constructs 4.1-4.6 and clones 4.8-4.9 followed by 1 h incubation at 4° C. […] Next, cells were washed and resuspended in FACS buffer and read on Beckman Coulter CytoFLEX. The data were analysed using FloJo V10 and GraphPad Prism v9. Clone 4.7 was tested for binding to A375 (LTBR positive cell line) and the HEK293-FAP overexpressing cell line, as described in examples 2.4 and 3.5. The EC50 values can be found in.

[6] = molecular target: T1, human LTBR endogenously expressed on …; experiment: flow cytometry, A549 cells
Method: as §1

[7] = molecular target: T3, human FAP (Acro, cat no FAP-H82Q6) (human, UniProt Q12884 26-760); experiment: BLI (Octet), antibody captured by anti-Fc, FAP as analyte; * value outside instrument specifications
T3 construct: 'FAP is naturally a dimeric antigen'
Method: Binding to recombinant FAP proteins was investigated by Bio-Layer Interferometry (BLI) using the Octet instrument. Using standard amine coupling chemistry, an anti-Fc antibody was immobilised on the surface of ARG biosensors (Fortebio). The FAP/LTBR bispecific antibodies were loaded on the previously coated surface with anti-Fc capture antibody, followed by a 2-fold series dilution starting at 50 nM of either cyno FAP (Acro, cat no FAP-C82Q5) or human FAP (Acro, cat no FAP-H82Q6). Binding kinetics were studied in a 1× Kinetics buffer where the association was allowed for 200 seconds, followed by dissociation for 400 seconds. Sensor tips were regenerated using 10 mM Glycine pH 2.0. Data generated were referenced by subtracting a parallel buffer blank, the baseline was aligned with the y-axis, inter-step correlation by alignment against dissociation was performed, and the data were smoothed by a Savitzky-Golay filter in the data analysis software. The processed data were fitted using a 1:1 Langmuir binding model with R\hat{ }2 as a measurement of fitting accuracy. The Results are summarised in. Avidity was observed as FAP is naturally a dimeric antigen, and the limited detection by Octet with these molecules has been reached. Species cross-reactivity has been confirmed for all test samples.

[8] = molecular target: T4, Biotinylated hLTBR-His-Avitag (Acro, cat no LTR-H82E9-25 µg) (human, UniProt P36941 31-227, biotinylated (Avitag)); experiment: BLI (Octet), biotinylated LTBR on SA sensor, antibody as analyte
T4 construct: bought protein loaded on SA Streptavidin biosensors
T4 sequence (P36941 31-227 limits assumed): as the sequence (P36941 other isoform, or with tags, fused parts or gaps limits assumed) above, with V2A, G7A, R24Q, S45I, D163N, R181K, S184L, S186P counted along it
Method: Briefly, Biotinylated hLTBR-His-Avitag (Acro, cat no LTR-H82E9-25 μg) was loaded on SA Streptavidin biosensors (Fortebio) in kinetics buffer (ForteBio) followed by a 2-fold dilution series starting at 50 nM of FAP/LTBR bispecific antibodies. Binding kinetics were studied in a 1× Kinetics buffer where the association was allowed for 100 seconds, followed by dissociation for 300 seconds. Data generated were referenced by subtracting a parallel buffer blank, the baseline was aligned with the y-axis, inter-step correlation by alignment against dissociation was performed, and the data were smoothed by a Savitzky-Golay filter in the data analysis software. The processed data were fitted using a 1:1 Langmuir binding model with R\hat{ }2 as a measurement of fitting accuracy. The KD and R\hat{ }2 values can be found in.

[9] = molecular target: T1, human LTBR endogenously expressed on …; experiment: cell-based or functional assay; remark: listed apart in the source
[10] = molecular target: T1, human LTBR endogenously expressed on …; experiment: cell-based or functional assay; remark: listed apart in the source

| Binder | HepG2 Reporter assay, HepG2:FAP-CHO-K1 Co-culture EC50 [1] | CCL19 upregulation, HCC1187:CAF Co-culture EC50 [2] | ICAM1 upregulation in CAFs monoculture assay EC50 [3] | Kd [4] | EC50 [5] | EC50 [6] | Kd [7] | Kd [8] | chemokine (CCL5) induction in RPMI-7951 EC50 [9] | HCC-1187:RPMI7951 (cis-activation) co-culture assay CCL5 read-out EC50 [10] | HCC-1187:RPMI7951 (trans-activation) co-culture assay, CCL19 Read-out EC50 [10] |
| --- | --- | --- | --- | --- | --- | --- | --- | --- | --- | --- | --- |
| B1 | 60 pM | 90 pM | 40 pM | 5780 pM | 800 pM | 6900 pM | 192 pM | 3100 pM | 100 pM | 120 pM | 110 pM |
| B2 | 53 pM | 13 pM | 10 pM | 17100 pM | 330 pM |  | 44.3 pM | 4300 pM | 24 pM | 13 pM |  |
| B3 | 31 pM | 54 pM | 4.8 pM | 8300 pM | 200 pM | 45000 pM | 231 pM | 4600 pM | 28 pM | 12 pM |  |
| B4 | 30 pM | 60 pM | 19 pM | 6750 pM | 470 pM | 3200 pM | 325 pM | 3200 pM | 63 pM | 110 pM | 160 pM |
| B5 | 40 pM | 23 pM | 11 pM | 5220 pM | 110 pM | 29000 pM | 100 pM | 6500 pM | 18 pM | 12 pM |  |
